The nature of this data set: label from the status in PepcDB records.
As for “MKQSGTAAHKLTIFYVGMLLLFLIGLWLFATIGKELETNVVDKAMSLRGRGGLVGAFDSFSESVHHHFTDTIGVLLLQIIVILTVARLVAWFFGKIGQPTVIGEIVAGILLGPSLLGAVWPEAYEVLFPLSALANLELLSQFGLILFMFVIGMELNINDIKPRFSQSMIISHAGIFIPFLLGLLISYMTYKDYAADTTTFLPYGLFIGISMSITAFPVLARIIQERQLGKSHLGMLSISTAAAGDISAWLMLAGVMAITQSGSFLSAIYNFLFLILYLLVIFGLVRPFFKVIGRLYDNQEVVSKTMIGFIFVLLLASAYATELLSMHALFGAFMLGLVMPENVQFRKILTEKVEDVSLTLFLPLFFVSSGLQTKLGLLDSASLWLLTGAFTLIAIIGKFGGTYVAARFCGERKKASLYLGAFMNTRGLMELVVLAIGRELGILPPVIFTILVMMTLITTFMTTPLLRLIDLFFKRETELENAALQKENSGAVLLSFGRASSGAHLLHATDLLMHRGDEKPSVTALHITVGSDTNLTSSEVYEERAFAPIREESDRRRLPIRTLHHHTFEHPEAEVVRTVNAGGYSFLLVGAGINLSDRKSDRELLYFRKKLQRKLGPISIATPEALLNAHEMLRDKMHYFIEQTQCSVGIFIHRGFKHAGKVLLLMENEGDEELLAYARSLARNNGSVLDVLPETDGLPPTLSMGENRLKAGLPSTINISSYHFMLVSYRYWLRFAGECPSVIEHLPSTIIIHHRNDRSSTLKAAMI”, the protein production entry is given as “failed”. As for “MDLWDRFCVNLHTRKITLEDESQKRSMDLRLLHGVAYGHSWFGKWGYRFCSGSFGVEEHHYHRAIAFLTSISLVDDITANFRENKANLNIGDIVRCYRDMSEIQLTTLQDLLRFMLTIKSRAPPIRIPIGKIEAPSVVLPSMKAYGTRACPQVKQCPKDKEKSVKCRKFALPLPLQACFHFPFRSSMTLLSGSFRS”, the protein production entry is given as “not failed”. For “MDNKVSILNQPKPFKMIFFIELWERFGYYGLQGILAVYFVDKLGFSMQDSFVTFGAFAALVYGLVSVGGYVGDYVLGTKRTMVFGAVVLALGYFLMGFSILNPNFIYLALGAIAVGNGLFKANPSSLLAKCYEKGDSRLDGAFTLYYMSINIGSLVSLSISPVIANNYGYEYAFVICGLGLIASLFSYFSLRSTVQGIGSEPDALPLNKTKALIVLIGTVASTLVCAWLLQNIMMANLALGLIGVGVVGFFLKETFKETGEQRNKMIVAFILMLQAIIFYVLYAQMPTSLNFFAINNVHSELFGIDINPVSLQALNPFWVIFCSPILAYLYTYYGNQNKDLSMPGKFTVGMFMCAFGFLSVAAAGNWFADQAGMVSVWWMILVYLFQSLGELMISGLGLAMVASLVPQRLMGFTMGAWFLTQAASFIIGGYVATFSATPEHLTAPLDTLPVYTELFQNIGFVTLAVAIVMAFTAPKLNKMMTSSQPEDAELVEQP”, the protein production entry is “failed”. “MLVSEAVLPLLFYGILTPVYQVILRGKISNVKGFYLAWITAPFLVGYFFYSTLVEVFLLLIFNIIGYIIVLKNKYKYIFPLLLFSAVIIQIFYILTTLHTIHG”: the protein production result was “failed”.

“MEITDVRLRRVETDGRMKAISSITIDGEFVIHDIRVIDGNEGLFVAMPSKRTPDGEFRDIAHPINSGTRAKIQEAVLAAYEVADEPAVNEESSADESVVEEN”: the protein production entry was “failed”.

Take “MNENHKELISIGLTVSIVIFSLYIVHKFIPSMIWAAIIVIATYPLYTRWRKLFGNKHNTSAFLFTTLMGLLFLIPLSWLIGILIKESQLFINFLQHINKEGGAAPEFFKNIPLVGDDLIQYWDVNIGKPGNIKEFLSNLHVTLTPTSYYIKQIGVNLAHRSFQVGFTLLTLFFFYRDGDKLLLQIQHIGEYCLGDRWFRYSDRLPSALRGTVNGTIVVGIGVGILMGVCYALVGFPAPTLTGFITALAAMIPFVVPVVFIIVALILLSVGSLIGGIIVLVWGTLVMFVADHFVKPVLIGGAIQLPFLAVLFGILGGVETLGLLGLFLGPMVMVLFVTLWQEPQGHKKSSG”: the protein production result is listed as “failed”. Regarding “DYIEGVIADISDVYDELRLRKQAEVALQASEAELRSLFSAIPDPLCVVTAQGRVIETVAGNPRQLYSSVEEKVGKTLHQIFEEEQADKFMGYIQQVLRTQQVLTVEYSLQIDGRETWFSARIAPIRHE”, the protein production result was “failed”. The result for “MKKKKVIASIVAVCFSLALLSTWVMIFGCMKRGEQELHANTSVEIPDMSSIPGCVQNGGQLMYRGNIYKYDPANINILFMGIDARGEDESIGQADMLALVVINTEKDTVKCICINRDSIGPVAIYDISGKAATTKNVQIALAYSYGKSQSEGRGLEMNTVSKLLHGIPIHGSVSVDIDGIGGINELAGGITLTALEDVPKAGIVKGEEVTLNDEQAMYYVTERDSASTDIGTNENRMSRQKQYISAWCDAVQQQIKKNPFKIFKMYDSVQGYVDTDISRNSMLYLAKVLKRVQFGEGDIYTVSGDYERENYYDKYLIDEDKLTEMMIETFYRKTE” reads “failed”. The result for “MRRTPRKATAAGALMAATAFLTVGIQAVPATAKPAAPHPSPLRTGGQEAKLTPAQHSALLKSAAKKTTTTAATLGLGAKEKLVVRDVVKDNDGTLHTRYERTWAGLPVLGGDVVVHTPPASLAAGTVSSTFNNKRTIKVASTTASFTRSAAVTKALKAAKDLAAEKATTDSARKVIWAGSGAPKLAWETVIGGLQDDGTPSQLHVITDATTGKELYRYQGVKTGTGNTQYSGTVSLSTTLSGSTYQLYDTTRGGHKTYSLNNGTSGTGTLMTDADDTWGTGSGSNTQTAGADAAYGAQTTWDFYKNTFGRSGIKNDGVAAYSRVHYSTAYVNAFWDDDCFCMTYGDGTSSTHALTSLDVAGHEMSHGVTSNTAGLNYTGESGGLNEATSDIFGTGVEFYAANSSDVGDYLIGEKIDINGDGTPLRYMDEPDKDGGSADSWYSGVGNLDVHYSSGPANHMFYLLSEGSGSKTINGVTYNSPTSDGVAVAGIGRAAALQIWYKALTTYMTSSTNYAGARTAALNAATALYGASSTQYAGVANAFAGINVGSHVTPPTSGVTVTNPGSQSSTVGTAVSLQVSASSTNSGSLTYAATGLPTGLSVNSSTGVISGTPTTAGTYSTTVTVTDSTGATGTASFTWTVSSSGGGGTCASTQLLGNPGFESGNTTWTASSGVITNSSSEAAHAGSYKAWLDGYGSTHTDTLSQSVTIPSGCKASLTFYLHIDTAETTTSTQYDKLTVTAGSTTLATYSNLNAASGYTQKTFDLSSLAGTTVALKFSGVEDSSLQTSFVIDDTALTTS” reads “failed”; that for “MPGFNYGGDQDEVYTPYRRVLVTGATGLLGRAVYKEFKNNDWDALGCGYNRARPFFLKCNLLDEDAVRGVIQSFQPHVIVHCAAERRPDVVERHTEAAMNLNVHACATLAKEAGGSFLIYISTDYVFDGRNPPYGENDAPNPLNLYGKSKLEGEREILRHCPGAAVLRVPILFGEVEKVEESAVTVLFERVQEGAESCTIDHCQQRFPTYTNDVARVCRNMAERALQDQSLRGIFHYSAKEQMTKYEMTCAIADAFNLPSSHLIPMTEQPAGAGAQRPQNAQLECSRLELLGLSVESTPFKNAIRDSLWPFQHDKRWRQTVFH”, “not failed”; that for “MNFSTSFWQGFRALVPLWLGTVPFALAYAVTARAAGLSVGDTCLMSLTTFAGASQFAAAGLFGAHAGGLSIVLTTFLLNARHLLYGLSLARELRLTLPQRVVAAQFLTDEAYGVAVVSGARLPGGLTFAFLLGAELSLYLSWNVSTLLGALAGSVLPPPEQLGVGVVFPLAFLGLLVPLVVDRLSLLVALAAGLGGWALSRVLPGGLVILLAGVGGALLGAALLTRREQRAGVRA”, “failed”. For “MSLKKTILCFGEALIDMLAQPLVKKGMPRAFLQCAGGAPANVAVAVARLGGAVQFVGMLGSDMFGDFLFDSFAEAGVVTDGIVRTSTAKTALAFVALDAHGERSFSFYRPPAADLLFRVEHFQDASFSDALIFHACSNSMTDADIAEVTFEGMRRAQAAGAIVSFDLNFRPMLWPNGENPASRLWKGLSLADVVKLSSEELDYLANTLAADANAVIQQLWQGRAQLLLVTDAAGPVHWYTRTAGGEVPTFRVQVQDSNAAGDAFVGGMLYTFAQQFDDAAALIDFCHDPESIVSTLRFAAAVGALAVTRQGAFTAMPMLSEVLSLIQEQSEGHHHHHH”, the protein production result was “not failed”. As to “EVPDLPEEPSETAEEVVTVALRCPNGRVLRRRFFKSWNSQVLLDWMMKVGYHKSLYRLSTSFPRRALEVEGGSSLEDIGITVDTVLNVEEKEQSSQ”, the protein production entry is on record as “not failed”.

These data come from a protein production outcome set (Wang et al. 2014).
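Note: failed if final PepcDB status was selected cloned or expressed and not failed if soluble or beyond.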
